B1: HC-S103M (antibody, V domains shown)
VH: EVQLVQSGAEVKKPGATVKISCKVSGYSFTGHTMNWIRQPPGKGLEWIGLIKPSNGGTSYNQKFKGRVTISADKSISTAYLQWSSLKASDTAMYYCAHGHYEMYFAMDYWGQGTLVTVSS
VL: DIQMTQSPSSLSASVGDRVTITCKASQDVSSAVAWYQQKPGQAPRLLIYWASTRHTGVPSRFSGSGSGTEFTLTISSLQPDDFATYYCQEHFSTPLTFGQGTKVEIK
B2: HC-F105N (antibody, V domains shown)
VH: EVQLVQSGAEVKKPGATVKISCKVSGYSFTGHTMNWIRQPPGKGLEWIGLIKPSNGGTSYNQKFKGRVTISADKSISTAYLQWSSLKASDTAMYYCAHGHYESYNAMDYWGQGTLVTVSS
VL: DIQMTQSPSSLSASVGDRVTITCKASQDVSSAVAWYQQKPGQAPRLLIYWASTRHTGVPSRFSGSGSGTEFTLTISSLQPDDFATYYCQEHFSTPLTFGQGTKVEIK
B3: HC-E102I (antibody, V domains shown)
VH: EVQLVQSGAEVKKPGATVKISCKVSGYSFTGHTMNWIRQPPGKGLEWIGLIKPSNGGTSYNQKFKGRVTISADKSISTAYLQWSSLKASDTAMYYCAHGHYISYFAMDYWGQGTLVTVSS
VL: DIQMTQSPSSLSASVGDRVTITCKASQDVSSAVAWYQQKPGQAPRLLIYWASTRHTGVPSRFSGSGSGTEFTLTISSLQPDDFATYYCQEHFSTPLTFGQGTKVEIK
B4: HC-E102A (antibody, V domains shown)
VH: EVQLVQSGAEVKKPGATVKISCKVSGYSFTGHTMNWIRQPPGKGLEWIGLIKPSNGGTSYNQKFKGRVTISADKSISTAYLQWSSLKASDTAMYYCAHGHYASYFAMDYWGQGTLVTVSS
VL: DIQMTQSPSSLSASVGDRVTITCKASQDVSSAVAWYQQKPGQAPRLLIYWASTRHTGVPSRFSGSGSGTEFTLTISSLQPDDFATYYCQEHFSTPLTFGQGTKVEIK
B5: HC-H100W (antibody, V domains shown)
VH: EVQLVQSGAEVKKPGATVKISCKVSGYSFTGHTMNWIRQPPGKGLEWIGLIKPSNGGTSYNQKFKGRVTISADKSISTAYLQWSSLKASDTAMYYCAHGWYESYFAMDYWGQGTLVTVSS
VL: DIQMTQSPSSLSASVGDRVTITCKASQDVSSAVAWYQQKPGQAPRLLIYWASTRHTGVPSRFSGSGSGTEFTLTISSLQPDDFATYYCQEHFSTPLTFGQGTKVEIK
B6: HC-Y104P (antibody, V domains shown)
VH: EVQLVQSGAEVKKPGATVKISCKVSGYSFTGHTMNWIRQPPGKGLEWIGLIKPSNGGTSYNQKFKGRVTISADKSISTAYLQWSSLKASDTAMYYCAHGHYESPFAMDYWGQGTLVTVSS
VL: DIQMTQSPSSLSASVGDRVTITCKASQDVSSAVAWYQQKPGQAPRLLIYWASTRHTGVPSRFSGSGSGTEFTLTISSLQPDDFATYYCQEHFSTPLTFGQGTKVEIK
B7: HC-E102D (antibody, V domains shown)
VH: EVQLVQSGAEVKKPGATVKISCKVSGYSFTGHTMNWIRQPPGKGLEWIGLIKPSNGGTSYNQKFKGRVTISADKSISTAYLQWSSLKASDTAMYYCAHGHYDSYFAMDYWGQGTLVTVSS
VL: DIQMTQSPSSLSASVGDRVTITCKASQDVSSAVAWYQQKPGQAPRLLIYWASTRHTGVPSRFSGSGSGTEFTLTISSLQPDDFATYYCQEHFSTPLTFGQGTKVEIK
B8: HC-Y104C (antibody, V domains shown)
VH: EVQLVQSGAEVKKPGATVKISCKVSGYSFTGHTMNWIRQPPGKGLEWIGLIKPSNGGTSYNQKFKGRVTISADKSISTAYLQWSSLKASDTAMYYCAHGHYESCFAMDYWGQGTLVTVSS
VL: DIQMTQSPSSLSASVGDRVTITCKASQDVSSAVAWYQQKPGQAPRLLIYWASTRHTGVPSRFSGSGSGTEFTLTISSLQPDDFATYYCQEHFSTPLTFGQGTKVEIK
B9: HC-F105T (antibody, V domains shown)
VH: EVQLVQSGAEVKKPGATVKISCKVSGYSFTGHTMNWIRQPPGKGLEWIGLIKPSNGGTSYNQKFKGRVTISADKSISTAYLQWSSLKASDTAMYYCAHGHYESYTAMDYWGQGTLVTVSS
VL: DIQMTQSPSSLSASVGDRVTITCKASQDVSSAVAWYQQKPGQAPRLLIYWASTRHTGVPSRFSGSGSGTEFTLTISSLQPDDFATYYCQEHFSTPLTFGQGTKVEIK
B10: HC-S103N (antibody, V domains shown)
VH: EVQLVQSGAEVKKPGATVKISCKVSGYSFTGHTMNWIRQPPGKGLEWIGLIKPSNGGTSYNQKFKGRVTISADKSISTAYLQWSSLKASDTAMYYCAHGHYENYFAMDYWGQGTLVTVSS
VL: DIQMTQSPSSLSASVGDRVTITCKASQDVSSAVAWYQQKPGQAPRLLIYWASTRHTGVPSRFSGSGSGTEFTLTISSLQPDDFATYYCQEHFSTPLTFGQGTKVEIK
B11: HC-H100E (antibody, V domains shown)
VH: EVQLVQSGAEVKKPGATVKISCKVSGYSFTGHTMNWIRQPPGKGLEWIGLIKPSNGGTSYNQKFKGRVTISADKSISTAYLQWSSLKASDTAMYYCAHGEYESYFAMDYWGQGTLVTVSS
VL: DIQMTQSPSSLSASVGDRVTITCKASQDVSSAVAWYQQKPGQAPRLLIYWASTRHTGVPSRFSGSGSGTEFTLTISSLQPDDFATYYCQEHFSTPLTFGQGTKVEIK
B12: HC-S103Q (antibody, V domains shown)
VH: EVQLVQSGAEVKKPGATVKISCKVSGYSFTGHTMNWIRQPPGKGLEWIGLIKPSNGGTSYNQKFKGRVTISADKSISTAYLQWSSLKASDTAMYYCAHGHYEQYFAMDYWGQGTLVTVSS
VL: DIQMTQSPSSLSASVGDRVTITCKASQDVSSAVAWYQQKPGQAPRLLIYWASTRHTGVPSRFSGSGSGTEFTLTISSLQPDDFATYYCQEHFSTPLTFGQGTKVEIK
B13: HC-Y104E (antibody, V domains shown)
VH: EVQLVQSGAEVKKPGATVKISCKVSGYSFTGHTMNWIRQPPGKGLEWIGLIKPSNGGTSYNQKFKGRVTISADKSISTAYLQWSSLKASDTAMYYCAHGHYESEFAMDYWGQGTLVTVSS
VL: DIQMTQSPSSLSASVGDRVTITCKASQDVSSAVAWYQQKPGQAPRLLIYWASTRHTGVPSRFSGSGSGTEFTLTISSLQPDDFATYYCQEHFSTPLTFGQGTKVEIK
B14: HC-Y101N (antibody, V domains shown)
VH: EVQLVQSGAEVKKPGATVKISCKVSGYSFTGHTMNWIRQPPGKGLEWIGLIKPSNGGTSYNQKFKGRVTISADKSISTAYLQWSSLKASDTAMYYCAHGHNESYFAMDYWGQGTLVTVSS
VL: DIQMTQSPSSLSASVGDRVTITCKASQDVSSAVAWYQQKPGQAPRLLIYWASTRHTGVPSRFSGSGSGTEFTLTISSLQPDDFATYYCQEHFSTPLTFGQGTKVEIK
B15: HC-F105S (antibody, V domains shown)
VH: EVQLVQSGAEVKKPGATVKISCKVSGYSFTGHTMNWIRQPPGKGLEWIGLIKPSNGGTSYNQKFKGRVTISADKSISTAYLQWSSLKASDTAMYYCAHGHYESYSAMDYWGQGTLVTVSS
VL: DIQMTQSPSSLSASVGDRVTITCKASQDVSSAVAWYQQKPGQAPRLLIYWASTRHTGVPSRFSGSGSGTEFTLTISSLQPDDFATYYCQEHFSTPLTFGQGTKVEIK
B16: HC-H100P (antibody, V domains shown)
VH: EVQLVQSGAEVKKPGATVKISCKVSGYSFTGHTMNWIRQPPGKGLEWIGLIKPSNGGTSYNQKFKGRVTISADKSISTAYLQWSSLKASDTAMYYCAHGPYESYFAMDYWGQGTLVTVSS
VL: DIQMTQSPSSLSASVGDRVTITCKASQDVSSAVAWYQQKPGQAPRLLIYWASTRHTGVPSRFSGSGSGTEFTLTISSLQPDDFATYYCQEHFSTPLTFGQGTKVEIK
B17: HC-T033I (antibody, V domains shown)
VH: EVQLVQSGAEVKKPGATVKISCKVSGYSFTGHIMNWIRQPPGKGLEWIGLIKPSNGGTSYNQKFKGRVTISADKSISTAYLQWSSLKASDTAMYYCAHGHYESYFAMDYWGQGTLVTVSS
VL: DIQMTQSPSSLSASVGDRVTITCKASQDVSSAVAWYQQKPGQAPRLLIYWASTRHTGVPSRFSGSGSGTEFTLTISSLQPDDFATYYCQEHFSTPLTFGQGTKVEIK
B18: HC-E102F (antibody, V domains shown)
VH: EVQLVQSGAEVKKPGATVKISCKVSGYSFTGHTMNWIRQPPGKGLEWIGLIKPSNGGTSYNQKFKGRVTISADKSISTAYLQWSSLKASDTAMYYCAHGHYFSYFAMDYWGQGTLVTVSS
VL: DIQMTQSPSSLSASVGDRVTITCKASQDVSSAVAWYQQKPGQAPRLLIYWASTRHTGVPSRFSGSGSGTEFTLTISSLQPDDFATYYCQEHFSTPLTFGQGTKVEIK

Experiments:
[1] = target: T1, Axl protein (human, UniProt P30530 26-451); assay: ELISA, 1:3 dilution, pH 6.0 over pH 7.4
T1 construct: extracellular domain; also called human Axl; hAxl
T1 sequence (looked up): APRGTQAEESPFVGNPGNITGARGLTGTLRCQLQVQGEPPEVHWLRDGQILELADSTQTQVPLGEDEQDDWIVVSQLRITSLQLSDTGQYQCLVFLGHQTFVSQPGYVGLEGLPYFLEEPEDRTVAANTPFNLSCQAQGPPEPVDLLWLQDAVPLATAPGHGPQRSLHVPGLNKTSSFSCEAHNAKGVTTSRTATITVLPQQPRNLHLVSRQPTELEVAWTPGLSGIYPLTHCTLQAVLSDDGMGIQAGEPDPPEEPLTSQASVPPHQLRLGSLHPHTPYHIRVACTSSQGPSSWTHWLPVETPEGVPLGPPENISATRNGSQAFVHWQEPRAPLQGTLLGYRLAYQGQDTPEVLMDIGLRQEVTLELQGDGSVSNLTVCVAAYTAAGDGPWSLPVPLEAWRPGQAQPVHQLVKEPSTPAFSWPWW

[2] = target: T1, Axl protein; assay: ELISA, 1:9 dilution, pH 6.0 over pH 7.4

| Binder | Affinity ELISA CPE mutant ratio (1:3, pH 6.0/7.4) [1] [ratio] | Affinity ELISA CPE mutant ratio (1:9, pH 6.0/7.4) [2] [ratio] |
| --- | --- | --- |
| B1 | 1.78 | 1.81 |
| B2 | 2.36 | 2.64 |
| B3 | 2.02 | 1.7 |
| B4 | 1.54 | 1.69 |
| B5 | 4.94 | 5.91 |
| B6 | 2.54 | 2.42 |
| B7 | 2.67 | 2.85 |
| B8 | 1.84 | 1.74 |
| B9 | 3.46 | 4.02 |
| B10 | 1.07 | 3.18 |
| B11 | 2.77 | 3.62 |
| B12 | 0.912 | 2.26 |
| B13 | 1.32 | 1.8 |
| B14 | 2.17 | 2.91 |
| B15 | 3.9 | 4.54 |
| B16 | 2.58 | 1.18 |
| B17 | 1.59 | 1 |
| B18 | 1.88 | 1.36 |

From patent publication US20190177417A1 (BIOATLA, published 2019)
